This is an account of results in patent publication US20200369765A1 (INNATE PHARMA, published 2020).

As a reminder, the EC50 is the concentration giving half of the maximal effect.

This experiment has as its target T1, Human Siglec-9 (human, UniProt Q9Y336 18-463).
T1 construct: On transfected CHO cells; also on YTS and KHYG-1 transfectants, primary NK cells and moDC; also called huSiglec-9; CD329
Put plainly: flow cytometry, CHO Siglec-9 cells, mean n = 2. As for the experimental part:
Binding of humanized antibodies was tested on CHO cells transfected with human Siglec-9, in a titration experiment by flow cytometry. Cells were incubated 90 minutes at 37° C. in Staining Buffer (SB) with primary antibodies at 10 ug/ml and a series of dilution of 1:10. They were washed three times with SB, then incubated 30 minutes with a goat F(ab′)² Anti-human IgG (Fc) PE. EC₅₀ values (μg/ml) for Siglec-9 expressing cells are shown below.
(A flow cytometer gives signals particle by particle.)

T1 sequence (Q9Y336 18-463): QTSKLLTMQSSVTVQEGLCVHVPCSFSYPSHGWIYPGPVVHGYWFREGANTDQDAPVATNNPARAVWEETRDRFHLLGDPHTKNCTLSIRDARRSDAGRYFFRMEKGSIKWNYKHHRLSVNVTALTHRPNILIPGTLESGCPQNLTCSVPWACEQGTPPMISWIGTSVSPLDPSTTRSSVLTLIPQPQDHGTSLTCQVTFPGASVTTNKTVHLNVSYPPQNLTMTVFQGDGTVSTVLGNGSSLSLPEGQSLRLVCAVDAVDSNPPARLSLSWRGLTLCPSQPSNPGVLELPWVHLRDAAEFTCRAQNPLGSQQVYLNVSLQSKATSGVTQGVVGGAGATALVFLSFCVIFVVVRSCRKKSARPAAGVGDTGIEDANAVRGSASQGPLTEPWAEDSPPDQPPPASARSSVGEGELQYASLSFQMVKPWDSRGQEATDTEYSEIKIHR

B1: mAbD H1L1 (antibody, V domains shown)
VH: QVQLVQSGSELKKPGASVKVSCKASGYTFTDYSMHWVRQAPGQGLKWMGWIITETGEPTYADDFRGRFVFSLDTSVSTAYLQISSLKAEDTAVYYCARDFDGYWGQGTTVTVSS
VL: DIQMTQSPSSLSASVGDRVTITCRASENIYSYLAWYQQKPGKAPKFLIYNAKTLTEGVPSRFSGSGSGTDFTLTISSLQPEDFATYYCQHHYGFPWTFGGGTKVEIK
notes: constant region not specified
With B1, the 50% effective concentration (EC50) stood at 0.015 µg/mL.

B2: mAbD H1L2 (antibody, V domains shown)
VH: QVQLVQSGSELKKPGASVKVSCKASGYTFTDYSMHWVRQAPGQGLKWMGWIITETGEPTYADDFRGRFVFSLDTSVSTAYLQISSLKAEDTAVYYCARDFDGYWGQGTTVTVSS
VL: DIQMTQSPSSLSASVGDRVTITCRASENIYSYLAWYQQKPGKAPKFLIYNAKTLTEGVPSRFRGSGSGTDFTLTISSLQPEDFATYYCQHHYGFPWTFGGGTKVEIK
notes: constant region not specified
Regarding B2, the EC50 turned out to be 0.019 µg/mL.

B3: mAbD H2L2 (antibody, V domains shown)
VH: QVQLVQSGSELKKPGASVKVSCKASGYTFTDYSMHWVRQAPGQGLKWMGWIITETGEPTYADDFRGRFVFSLDTSVSTAYLQISSLKAEDTAVYFCARDFDGYWGQGTTVTVSS
VL: DIQMTQSPSSLSASVGDRVTITCRASENIYSYLAWYQQKPGKAPKFLIYNAKTLTEGVPSRFRGSGSGTDFTLTISSLQPEDFATYYCQHHYGFPWTFGGGTKVEIK
notes: constant region not specified
B3 gave an EC50 of 0.021 µg/mL.

B4: mAbD H0L0 (antibody, V domains shown)
VH: QVQLVQSGSELKKPGASVKVSCKASGYTFTDYSMHWVRQAPGQGLEWMGWIITETGEPTYADDFRGRFVFSLDTSVSTAYLQISSLKAEDTAVYYCARDFDGYWGQGTTVTVSS
VL: DIQMTQSPSSLSASVGDRVTITCRASENIYSYLAWYQQKPGKAPKLLIYNAKTLTEGVPSRFSGSGSGTDFTLTISSLQPEDFATYYCQHHYGFPWTFGGGTKVEIK
notes: constant region not specified
Regarding B4, the EC50 was 0.019 µg/mL.

B5: mAbD H2L0 (antibody, V domains shown)
VH: QVQLVQSGSELKKPGASVKVSCKASGYTFTDYSMHWVRQAPGQGLKWMGWIITETGEPTYADDFRGRFVFSLDTSVSTAYLQISSLKAEDTAVYFCARDFDGYWGQGTTVTVSS
VL: DIQMTQSPSSLSASVGDRVTITCRASENIYSYLAWYQQKPGKAPKLLIYNAKTLTEGVPSRFSGSGSGTDFTLTISSLQPEDFATYYCQHHYGFPWTFGGGTKVEIK
notes: constant region not specified
The molecule B5 showed a concentration giving a half-maximal response (EC50) of 0.03 µg/mL.

B6: mAbD H1L0 (antibody, V domains shown)
VH: QVQLVQSGSELKKPGASVKVSCKASGYTFTDYSMHWVRQAPGQGLKWMGWIITETGEPTYADDFRGRFVFSLDTSVSTAYLQISSLKAEDTAVYYCARDFDGYWGQGTTVTVSS
VL: DIQMTQSPSSLSASVGDRVTITCRASENIYSYLAWYQQKPGKAPKLLIYNAKTLTEGVPSRFSGSGSGTDFTLTISSLQPEDFATYYCQHHYGFPWTFGGGTKVEIK
notes: constant region not specified
With B6, the EC50 was 0.019 µg/mL.

B7: mAbD H0L2 (antibody, V domains shown)
VH: QVQLVQSGSELKKPGASVKVSCKASGYTFTDYSMHWVRQAPGQGLEWMGWIITETGEPTYADDFRGRFVFSLDTSVSTAYLQISSLKAEDTAVYYCARDFDGYWGQGTTVTVSS
VL: DIQMTQSPSSLSASVGDRVTITCRASENIYSYLAWYQQKPGKAPKFLIYNAKTLTEGVPSRFRGSGSGTDFTLTISSLQPEDFATYYCQHHYGFPWTFGGGTKVEIK
notes: constant region not specified
The molecule B7 came in with an EC50 of 0.02 µg/mL.

B8: mAbD H2L1 (antibody, V domains shown)
VH: QVQLVQSGSELKKPGASVKVSCKASGYTFTDYSMHWVRQAPGQGLKWMGWIITETGEPTYADDFRGRFVFSLDTSVSTAYLQISSLKAEDTAVYFCARDFDGYWGQGTTVTVSS
VL: DIQMTQSPSSLSASVGDRVTITCRASENIYSYLAWYQQKPGKAPKFLIYNAKTLTEGVPSRFSGSGSGTDFTLTISSLQPEDFATYYCQHHYGFPWTFGGGTKVEIK
notes: constant region not specified
On to B8, for which the midpoint of the response, the EC50, lay at 0.016 µg/mL.

B9: mAbD H0L1 (antibody, V domains shown)
VH: QVQLVQSGSELKKPGASVKVSCKASGYTFTDYSMHWVRQAPGQGLEWMGWIITETGEPTYADDFRGRFVFSLDTSVSTAYLQISSLKAEDTAVYYCARDFDGYWGQGTTVTVSS
VL: DIQMTQSPSSLSASVGDRVTITCRASENIYSYLAWYQQKPGKAPKFLIYNAKTLTEGVPSRFSGSGSGTDFTLTISSLQPEDFATYYCQHHYGFPWTFGGGTKVEIK
notes: constant region not specified
Turning to B9, the EC50 was found to be 0.01 µg/mL.

B10: mAbA H1L1 (antibody, V domains shown)
VH: QVQLVQSGAEVKKPGSSVKVSCKASGGTFSSYWMHWVRQAPGQGLEWMGEINPSNGHTNYNEKFESRVTITADESTSTAYMELSSLRSEDTAVYYCANGVESYDFDDALDYWGQGTTVTVSS
VL: DIQMTQSPSSLSASVGDRVTITCRASQDINNYLNWYQQKPGKAPKLLIYYTSRLHSGVPSRFSGSGSGTDYTFTISSLQPEDIATYYCQQGNTLPFTFGGGTKVEIK
notes: constant region not specified
On to B10, for which the 50% effective concentration (EC50) came out at 0.033 µg/mL.

B11: mAbA H3L2 (antibody, V domains shown)
VH: QVQLVQSGAEVKKPGSSVKVSCKASYFTFSSYWMHWVRQAPGQGLEWMGEINPSNGHTNYNEKFESRVTITADRSTSTAYMELSSLRSEDTAVYYCANGVESYDFDDALDYWGQGTTVTVSS
VL: DIQMTQSPSSLSASVGDRVTITCRASQDINNYLNWYQQKPGKAIKLLIYYTSRLHSGVPSRFSGSGSGTDYTFTISSLQPEDIATYYCQQGNTLPFTFGGGTKVEIK
notes: constant region not specified
The molecule B11 yielded an EC50 of 0.074 µg/mL.

B12: mAbA H2L2 (antibody, V domains shown)
VH: QVQLVQSGAEVKKPGSSVKVSCKASYFTFSSYWMHWVRQAPGQGLEWMGEINPSNGHTNYNEKFESRVTITADESTSTAYMELSSLRSEDTAVYYCANGVESYDFDDALDYWGQGTTVTVSS
VL: DIQMTQSPSSLSASVGDRVTITCRASQDINNYLNWYQQKPGKAIKLLIYYTSRLHSGVPSRFSGSGSGTDYTFTISSLQPEDIATYYCQQGNTLPFTFGGGTKVEIK
notes: constant region not specified
B12 returned a 50% effective concentration (EC50) of 0.032 µg/mL. This EC50 is about 2.3-fold lower than that of the molecule before.

B13: mAbA H3L1 (antibody, V domains shown)
VH: QVQLVQSGAEVKKPGSSVKVSCKASYFTFSSYWMHWVRQAPGQGLEWMGEINPSNGHTNYNEKFESRVTITADRSTSTAYMELSSLRSEDTAVYYCANGVESYDFDDALDYWGQGTTVTVSS
VL: DIQMTQSPSSLSASVGDRVTITCRASQDINNYLNWYQQKPGKAPKLLIYYTSRLHSGVPSRFSGSGSGTDYTFTISSLQPEDIATYYCQQGNTLPFTFGGGTKVEIK
notes: constant region not specified
For B13, a half-maximal response (EC50) required 0.044 µg/mL.

B14: mAbA H1L0 (antibody, V domains shown)
VH: QVQLVQSGAEVKKPGSSVKVSCKASGGTFSSYWMHWVRQAPGQGLEWMGEINPSNGHTNYNEKFESRVTITADESTSTAYMELSSLRSEDTAVYYCANGVESYDFDDALDYWGQGTTVTVSS
VL: DIQMTQSPSSLSASVGDRVTITCRASQDINNYLNWYQQKPGKAPKLLIYYTSRLHSGVPSRFSGSGSGTDFTFTISSLQPEDIATYYCQQGNTLPFTFGGGTKVEIK
notes: constant region not specified
In the case of B14, the EC50 amounted to 0.045 µg/mL.

B15: mAbA H0L0 (antibody, V domains shown)
VH: QVQLVQSGAEVKKPGSSVKVSCKASGGTFSSYWMHWVRQAPGQGLEWMGEINPSNGHTNYNEKFESRVTITADESTSTAYMELSSLRSEDTAVYYCARGVESYDFDDALDYWGQGTTVTVSS
VL: DIQMTQSPSSLSASVGDRVTITCRASQDINNYLNWYQQKPGKAPKLLIYYTSRLHSGVPSRFSGSGSGTDFTFTISSLQPEDIATYYCQQGNTLPFTFGGGTKVEIK
notes: constant region not specified
In the case of B15, the EC50 is 0.04 µg/mL.

B16: mAbA H0L2 (antibody, V domains shown)
VH: QVQLVQSGAEVKKPGSSVKVSCKASGGTFSSYWMHWVRQAPGQGLEWMGEINPSNGHTNYNEKFESRVTITADESTSTAYMELSSLRSEDTAVYYCARGVESYDFDDALDYWGQGTTVTVSS
VL: DIQMTQSPSSLSASVGDRVTITCRASQDINNYLNWYQQKPGKAIKLLIYYTSRLHSGVPSRFSGSGSGTDYTFTISSLQPEDIATYYCQQGNTLPFTFGGGTKVEIK
notes: constant region not specified
In turn, B16 came in with an EC50 of 0.034 µg/mL.

B17: mAbA H2L1 (antibody, V domains shown)
VH: QVQLVQSGAEVKKPGSSVKVSCKASYFTFSSYWMHWVRQAPGQGLEWMGEINPSNGHTNYNEKFESRVTITADESTSTAYMELSSLRSEDTAVYYCANGVESYDFDDALDYWGQGTTVTVSS
VL: DIQMTQSPSSLSASVGDRVTITCRASQDINNYLNWYQQKPGKAPKLLIYYTSRLHSGVPSRFSGSGSGTDYTFTISSLQPEDIATYYCQQGNTLPFTFGGGTKVEIK
notes: constant region not specified
B17: the EC50 turned out to be 0.029 µg/mL.

B18: mAbA H0L1 (antibody, V domains shown)
VH: QVQLVQSGAEVKKPGSSVKVSCKASGGTFSSYWMHWVRQAPGQGLEWMGEINPSNGHTNYNEKFESRVTITADESTSTAYMELSSLRSEDTAVYYCARGVESYDFDDALDYWGQGTTVTVSS
VL: DIQMTQSPSSLSASVGDRVTITCRASQDINNYLNWYQQKPGKAPKLLIYYTSRLHSGVPSRFSGSGSGTDYTFTISSLQPEDIATYYCQQGNTLPFTFGGGTKVEIK
notes: constant region not specified
Take B18: the half-maximal effective concentration (EC50) amounted to 0.013 µg/mL.

B19: mAbA H1L2 (antibody, V domains shown)
VH: QVQLVQSGAEVKKPGSSVKVSCKASGGTFSSYWMHWVRQAPGQGLEWMGEINPSNGHTNYNEKFESRVTITADESTSTAYMELSSLRSEDTAVYYCANGVESYDFDDALDYWGQGTTVTVSS
VL: DIQMTQSPSSLSASVGDRVTITCRASQDINNYLNWYQQKPGKAIKLLIYYTSRLHSGVPSRFSGSGSGTDYTFTISSLQPEDIATYYCQQGNTLPFTFGGGTKVEIK
notes: constant region not specified
For the molecule B19, the EC50 was found to be 0.037 µg/mL.

B20: mAbA H3L0 (antibody, V domains shown)
VH: QVQLVQSGAEVKKPGSSVKVSCKASYFTFSSYWMHWVRQAPGQGLEWMGEINPSNGHTNYNEKFESRVTITADRSTSTAYMELSSLRSEDTAVYYCANGVESYDFDDALDYWGQGTTVTVSS
VL: DIQMTQSPSSLSASVGDRVTITCRASQDINNYLNWYQQKPGKAPKLLIYYTSRLHSGVPSRFSGSGSGTDFTFTISSLQPEDIATYYCQQGNTLPFTFGGGTKVEIK
notes: constant region not specified
With B20, the 50% effective concentration (EC50) was 0.12 µg/mL.

B21: mAbA H2L0 (antibody, V domains shown)
VH: QVQLVQSGAEVKKPGSSVKVSCKASYFTFSSYWMHWVRQAPGQGLEWMGEINPSNGHTNYNEKFESRVTITADESTSTAYMELSSLRSEDTAVYYCANGVESYDFDDALDYWGQGTTVTVSS
VL: DIQMTQSPSSLSASVGDRVTITCRASQDINNYLNWYQQKPGKAPKLLIYYTSRLHSGVPSRFSGSGSGTDFTFTISSLQPEDIATYYCQQGNTLPFTFGGGTKVEIK
notes: constant region not specified
For B21, the 50% effective concentration (EC50) is 0.034 µg/mL.
